Legend:
[1] = target: T1, D′D3 albumin fusion protein (D′D3-FP), dimer (human, Covalent homodimer: the two chains are joined by disulfide bridge(s) within the D3 part (paragraph 124 names Cys-1099, Cys-1142, Cys-1222, Cys-1225, Cys-1227 in SEQ ID NO:4 numbering). N-glycosylated, …); experiment: SPR (Biacore T200), D′D3-FP captured on anti-albumin antibody, rVIII-SingleChain as analyte, single cycle kinetics, 25° C.
T1 construct: It was expressed in CHO K1 cells with the VWF propeptide, which is cleaved by co-transfected furin; The dimer fraction was isolated by size exclusion chromatography; The description says the dimer is a disulfide-linked homodimer; In the SPR assay it was captured on an anti-albumin antibody; also called dimeric D′D3-FP; rD′D3-FP
Experimental: (§1) An anti-albumin antibody (MA1-20124, Thermo Scientific) was covalently coupled via its N-terminus to an activated CM 3 chip by NHS (N-Hydroxysuccinimide) and EDC […], both contained in the amine coupling kit (BR1000-50) from GE Healthcare. For immobilization 3 μg/mL of the antibody were diluted in sodium acetate buffer (10 mM, pH 5.0) and the antibody solution was flown over the chip for 7 min. at a flow rate of 10 μL/min. After the immobilization procedure non-coupled dextran filaments were saturated by flowing ethanolamine solution (1 M, pH 8.3) over the chip for 5 min (at a flow rate of 10 μL/min). The aim of saturating the flow cell was to minimize unspecific binding of the analytes to the chip. A reference flow cell was set up by saturating an empty flow cell with ethanolamine by using the same procedure as above.
(§2) Dimeric and monomeric D′D3-FP proteins, respectively, were immobilized to the covalently coupled anti-albumin antibody by a flow of the D′D3-FP proteins (5 μg/mL) over the chip for 3 min (flow rate of 10 μL/min).
(§3) To create binding curves for FVIII, each D′D3-FP protein preparation was diluted in running buffer (HBS-P+: 0.1 M HEPES, 1.5 M NaCl and 0.5% v/v Surfactant P20, pH 7.4; product code BR100671, GE Healthcare) to concentrations of 0.25 nM, 0.5 nM, 1 nM, 3 nM and 4 nM. […]

[2] = target: T1, D′D3 albumin fusion protein (D′D3-FP), …; experiment: SPR (Biacore T200), D′D3-FP captured on anti-albumin antibody, rVIII-SingleChain as analyte, single cycle kinetics, 25° C.; D′D3-FP dimer preparation
Experimental: as §1, §2, §3

T1 sequence (chain, as listed by the source limits assumed, chain 1 of 2): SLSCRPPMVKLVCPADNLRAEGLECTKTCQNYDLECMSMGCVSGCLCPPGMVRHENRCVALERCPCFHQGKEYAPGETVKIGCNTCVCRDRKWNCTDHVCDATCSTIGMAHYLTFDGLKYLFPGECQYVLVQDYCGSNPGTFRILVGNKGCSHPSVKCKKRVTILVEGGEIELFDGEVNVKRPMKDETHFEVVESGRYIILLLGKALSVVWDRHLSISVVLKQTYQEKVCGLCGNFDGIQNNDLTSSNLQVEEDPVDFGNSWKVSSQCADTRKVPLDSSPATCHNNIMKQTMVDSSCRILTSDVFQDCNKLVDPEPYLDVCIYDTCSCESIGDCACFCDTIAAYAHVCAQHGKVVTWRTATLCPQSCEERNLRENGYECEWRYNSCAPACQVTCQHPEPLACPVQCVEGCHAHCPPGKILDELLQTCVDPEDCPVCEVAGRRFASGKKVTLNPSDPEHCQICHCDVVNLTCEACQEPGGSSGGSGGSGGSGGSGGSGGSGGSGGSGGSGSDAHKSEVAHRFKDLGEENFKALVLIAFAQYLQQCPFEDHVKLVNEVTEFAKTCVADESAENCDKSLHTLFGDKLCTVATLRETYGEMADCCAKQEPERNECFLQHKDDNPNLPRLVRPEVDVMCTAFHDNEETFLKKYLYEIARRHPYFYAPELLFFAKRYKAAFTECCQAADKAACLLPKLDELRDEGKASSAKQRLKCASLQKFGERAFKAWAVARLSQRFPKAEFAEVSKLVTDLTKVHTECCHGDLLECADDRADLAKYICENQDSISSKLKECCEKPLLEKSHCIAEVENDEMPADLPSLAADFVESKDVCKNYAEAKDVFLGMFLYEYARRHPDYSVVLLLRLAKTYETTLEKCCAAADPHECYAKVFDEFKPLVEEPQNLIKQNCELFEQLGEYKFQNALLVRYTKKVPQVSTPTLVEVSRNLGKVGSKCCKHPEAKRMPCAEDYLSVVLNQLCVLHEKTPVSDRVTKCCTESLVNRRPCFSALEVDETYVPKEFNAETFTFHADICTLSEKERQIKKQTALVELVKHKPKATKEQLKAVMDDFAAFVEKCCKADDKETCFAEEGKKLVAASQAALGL
T1 sequence (chain, as listed by the source limits assumed, chain 2 of 2): as the sequence (chain, as listed by the source limits assumed, chain 1 of 2) above

koff [1]: 0.0015 s⁻¹
kon [1]: 4.5e+07 M⁻¹ s⁻¹
Kd [2]: 34 pM
B1: rVIII-SingleChain (single chain Factor VIII molecule, construct dBN(64-53) of WO 2004/067566) (other)
chain: ATRRYYLGAVELSWDYMQSDLGELPVDARFPPRVPKSFPFNTSVVYKKTLFVEFTDHLFNIAKPRPPWMGLLGPTIQAEVYDTVVITLKNMASHPVSLHAVGVSYWKASEGAEYDDQTSQREKEDDKVFPGGSHTYVWQVLKENGPMASDPLCLTYSYLSHVDLVKDLNSGLIGALLVCREGSLAKEKTQTLHKFILLFAVFDEGKSWHSETKNSLMQDRDAASARAWPKMHTVNGYVNRSLPGLIGCHRKSVYWHVIGMGTTPEVHSIFLEGHTFLVRNHRQASLEISPITFLTAQTLLMDLGQFLLFCHISSHQHDGMEAYVKVDSCPEEPQLRMKNNEEAEDYDDDLTDSEMDVVRFDDDNSPSFIQIRSVAKKHPKTWVHYIAAEEEDWDYAPLVLAPDDRSYKSQYLNNGPQRIGRKYKKVRFMAYTDETFKTREAIQHESGILGPLLYGEVGDTLLIIFKNQASRPYNIYPHGITDVRPLYSRRLPKGVKHLKDFPILPGEIFKYKWTVTVEDGPTKSDPRCLTRYYSSFVNMERDLASGLIGPLLICYKESVDQRGNQIMSDKRNVILFSVFDENRSWYLTENIQRFLPNPAGVQLEDPEFQASNIMHSINGYVFDSLQLSVCLHEVAYWYILSIGAQTDFLSVFFSGYTFKHKMVYEDTLTLFPFSGETVFMSMENPGLWILGCHNSDFRNRGMTALLKVSSCDKNTGDYYEDSYEDISAYLLSKNNAIEPRSFSQNSRHPSTRQKQFNATTIPENTTLQSDQEEIDYDDTISVEMKKEDFDIYDEDENQSPRSFQKKTRHYFIAAVERLWDYGMSSSPHVLRNRAQSGSVPQFKKVVFQEFTDGSFTQPLYRGELNEHLGLLGPYIRAEVEDNIMVTFRNQASRPYSFYSSLISYEEDQRQGAEPRKNFVKPNETKTYFWKVQHHMAPTKDEFDCKAWAYFSDVDLEKDVHSGLIGPLLVCHTNTLNPAHGRQVTVQEFALFFTIFDETKSWYFTENMERNCRAPCNIQMEDPTFKENYRFHAINGYIMDTLPGLVMAQDQRIRWYLLSMGSNENIHSIHFSGHVFTVRKKEEYKMALYNLYPGVFETVEMLPSKAGIWRVECLIGEHLHAGMSTLFLVYSNKCQTPLGMASGHIRDFQITASGQYGQWAPKLARLHYSGSINAWSTKEPFSWIKVDLLAPMIIHGIKTQGARQKFSSLYISQFIIMYSLDGKKWQTYRGNSTGTLMVFFGNVDSSGIKHNIFNPPIIARYIRLHPTHYSIRSTLRMELMGCDLNSCSMPLGMESKAISDAQITASSYFTNMFATWSPSKARLHLQGRSNAWRPQVNNPKEWLQVDFQKTMKVTGVTTQGVKSLLTSMYVKEFLISSSQDGHQWTLFFQNGKVKVFQGNQDSFTPVVNSLDPPLLTRYLRIHPQSWVHQIALRMEVLGCEAQDLY
notes: also called FVIII
